Tests used:
Pyk2 FERM (FAKF3) = target: T1, Pyk2 FERM (FAKF3) (UniProt Q14289 39-260; Q05397 254-362); test: Western blot of lysates of transfected SF767 cells
T1 construct: range 39-260;range 254-362; A chimera made by splice overlap extension PCR; The range 39-260 of Pyk2 is derived from the printed limits of the FERM domain (R39-A366) and the F3 module (D261-A366); also called Pyk2 FERM domain containing the FAK FERM F3 domain

[1] = target: T2, 3x HA-tagged FAK FERM domain (FAK residues R35-P362) (UniProt Q05397 35-362); test: Western blot of lysates of transfected SF767 cells
T2 construct: range 35-362
T2 sequence (looked up): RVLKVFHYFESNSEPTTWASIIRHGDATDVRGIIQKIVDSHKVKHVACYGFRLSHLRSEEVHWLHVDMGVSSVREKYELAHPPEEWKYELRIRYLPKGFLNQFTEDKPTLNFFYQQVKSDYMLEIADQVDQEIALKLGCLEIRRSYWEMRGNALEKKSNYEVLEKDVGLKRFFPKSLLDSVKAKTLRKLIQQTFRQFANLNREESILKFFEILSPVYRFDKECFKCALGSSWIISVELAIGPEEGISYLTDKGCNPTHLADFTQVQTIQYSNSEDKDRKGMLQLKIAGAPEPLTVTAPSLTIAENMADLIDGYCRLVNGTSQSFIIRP

[2] = target: T3, HA-epitope tagged wild type FAK (UniProt Q05397 2-1052, limits assumed); test: Western blot of lysates of transfected SF767 cells
T3 construct: mature; also called full length FAK; tyrosine kinase FAK

Pyk2 FERM I308E variant = target: T4, Pyk2 FERM I308E variant (UniProt Q14289 39-366); test: capture sandwich ELISA with hybridoma supernatant
T4 construct: domain: FERM domain; Printed once as '1308E' (a misprint of I308E); also called Pyk2 FERM variant 1308E

FLAG tagged Pyk2 Y135C = target: T5, FLAG tagged Pyk2 Y135C (UniProt Q14289 1-1009, limits assumed); test: anti-FLAG immunoprecipitation and 12A10 immunoblot
T5 construct: mature; also called Pyk2 with substitution of Y135
Excerpt: (§1) FIG. 2 (bottom panel) depicts a Western blot using anti-Pyk2 12A10 monoclonal antibody. SF767 cells were transfected with FLAG epitope tagged wild type (WT) Pyk2 or Pyk2 with the indicated amino acid substitution. Cells were lysed, Pyk2 was immunoprecipitated with anti-FLAG mAb, and immunoprecipitates immunoblotted with anti FLAG, anti-phosphotyrosine mAb pY20 or mAb 12A10. FIG. 2 (top) is a three dimensional model of the Pyk2 FERM with the locations of interacting residues, indicated by Arial font and non-interacting surfaces indicated by Times Roman font.
(§2) Immunoprecipitation of cleared lysates was performed as described elsewhere (Lipinski et al., Biochem. Biophys. Res. Commun., 349:939-947 (2006)). For immunoblotting, equal amounts of protein (10-20 μg) were electrophoresed on 8-16% gradient SDS-PAGE gels (Invitrogen, Carlsbad, Calif.) and transferred to nitrocellulose. Immunoblotting of transferred proteins was performed with the appropriate primary antibodies for 1 hour at room temperature and was visualized by enhanced chemiluminescence (Perkin Elmer Life Sciences, Boston, Mass.).

FLAG tagged Pyk2 R306E = target: T6, FLAG tagged Pyk2 R306E (UniProt Q14289 1-1009, limits assumed); test: anti-FLAG immunoprecipitation and 12A10 immunoblot
T6 construct: mature; also called Pyk2 with substitution of R306
Excerpt: as §1, §2

FLAG tagged Pyk2 W104A = target: T7, FLAG tagged Pyk2 W104A (UniProt Q14289 1-1009, limits assumed); test: anti-FLAG immunoprecipitation and 12A10 immunoblot
T7 construct: mature; also called Pyk2 with substitution of W104
Excerpt: as §1, §2

FLAG tagged Pyk2 D346A = target: T8, FLAG tagged Pyk2 D346A (UniProt Q14289 1-1009, limits assumed); test: anti-FLAG immunoprecipitation and 12A10 immunoblot
T8 construct: mature; also called Pyk2 with substitution of D346
Excerpt: as §1, §2

FLAG tagged Pyk2 I308E = target: T9, FLAG tagged Pyk2 I308E (UniProt Q14289 1-1009, limits assumed); test: anti-FLAG immunoprecipitation and 12A10 immunoblot
T9 construct: mature; also called Pyk2 with substitution of I308
Excerpt: as §1, §2

T5 sequence (Q14289 whole entry Y135C): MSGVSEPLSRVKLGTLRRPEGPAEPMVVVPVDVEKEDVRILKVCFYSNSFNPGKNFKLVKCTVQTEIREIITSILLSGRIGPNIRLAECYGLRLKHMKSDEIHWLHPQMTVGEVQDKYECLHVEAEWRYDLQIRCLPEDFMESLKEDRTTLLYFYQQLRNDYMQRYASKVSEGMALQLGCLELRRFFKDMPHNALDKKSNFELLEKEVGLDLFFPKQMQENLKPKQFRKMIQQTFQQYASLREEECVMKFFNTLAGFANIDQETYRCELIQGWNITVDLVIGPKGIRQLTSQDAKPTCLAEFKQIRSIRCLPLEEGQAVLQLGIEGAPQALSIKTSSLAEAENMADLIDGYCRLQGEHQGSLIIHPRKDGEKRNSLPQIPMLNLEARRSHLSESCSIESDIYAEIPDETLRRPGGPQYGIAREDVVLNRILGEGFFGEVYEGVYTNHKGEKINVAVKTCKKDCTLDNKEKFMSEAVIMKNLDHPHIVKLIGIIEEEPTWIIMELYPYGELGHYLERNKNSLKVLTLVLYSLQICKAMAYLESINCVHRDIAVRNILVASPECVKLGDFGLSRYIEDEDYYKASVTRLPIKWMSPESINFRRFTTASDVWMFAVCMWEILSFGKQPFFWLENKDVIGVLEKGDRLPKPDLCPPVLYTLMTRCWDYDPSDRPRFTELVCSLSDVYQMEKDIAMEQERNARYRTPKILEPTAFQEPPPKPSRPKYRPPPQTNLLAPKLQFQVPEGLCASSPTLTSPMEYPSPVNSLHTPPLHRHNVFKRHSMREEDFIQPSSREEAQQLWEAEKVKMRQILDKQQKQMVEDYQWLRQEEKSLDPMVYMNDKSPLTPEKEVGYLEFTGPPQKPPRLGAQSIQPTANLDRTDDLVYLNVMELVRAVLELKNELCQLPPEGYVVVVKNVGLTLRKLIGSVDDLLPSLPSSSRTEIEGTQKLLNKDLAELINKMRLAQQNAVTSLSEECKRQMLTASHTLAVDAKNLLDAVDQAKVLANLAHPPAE
T3 sequence (Q05397 2-1052 limits assumed): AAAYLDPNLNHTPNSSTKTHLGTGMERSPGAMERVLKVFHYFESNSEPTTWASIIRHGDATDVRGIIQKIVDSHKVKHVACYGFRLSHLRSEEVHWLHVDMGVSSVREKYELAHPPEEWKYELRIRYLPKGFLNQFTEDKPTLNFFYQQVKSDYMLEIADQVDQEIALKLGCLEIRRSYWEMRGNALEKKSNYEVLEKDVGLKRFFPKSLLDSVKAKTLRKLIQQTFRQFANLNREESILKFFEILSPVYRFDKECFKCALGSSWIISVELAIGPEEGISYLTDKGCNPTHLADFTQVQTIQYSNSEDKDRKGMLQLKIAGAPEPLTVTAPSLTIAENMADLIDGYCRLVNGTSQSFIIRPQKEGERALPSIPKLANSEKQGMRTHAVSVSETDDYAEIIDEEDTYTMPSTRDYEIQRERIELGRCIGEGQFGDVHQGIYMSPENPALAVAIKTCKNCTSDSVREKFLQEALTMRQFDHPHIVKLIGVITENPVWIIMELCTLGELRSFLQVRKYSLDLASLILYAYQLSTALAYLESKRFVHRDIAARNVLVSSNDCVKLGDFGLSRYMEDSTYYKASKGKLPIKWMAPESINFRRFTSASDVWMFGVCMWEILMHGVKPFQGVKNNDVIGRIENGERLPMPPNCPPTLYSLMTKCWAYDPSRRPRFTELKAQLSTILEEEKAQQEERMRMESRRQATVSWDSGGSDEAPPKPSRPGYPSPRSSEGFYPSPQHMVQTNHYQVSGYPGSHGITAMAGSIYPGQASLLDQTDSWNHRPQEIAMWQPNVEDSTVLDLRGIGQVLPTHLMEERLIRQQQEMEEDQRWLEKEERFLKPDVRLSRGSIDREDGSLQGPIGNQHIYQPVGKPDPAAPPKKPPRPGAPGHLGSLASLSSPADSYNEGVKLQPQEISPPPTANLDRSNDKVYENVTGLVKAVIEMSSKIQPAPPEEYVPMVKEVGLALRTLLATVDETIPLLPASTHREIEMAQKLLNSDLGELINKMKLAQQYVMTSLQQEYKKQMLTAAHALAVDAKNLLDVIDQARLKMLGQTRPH
T7 sequence (Q14289 whole entry W104A): as the sequence (Q14289 whole entry Y135C) above, with W104A, C135Y counted along it
T6 sequence (Q14289 whole entry R306E): as the sequence (Q14289 whole entry Y135C) above, with C135Y, R306E counted along it
T9 sequence (Q14289 whole entry I308E): as the sequence (Q14289 whole entry Y135C) above, with C135Y, I308E counted along it
T4 sequence (Q14289 39-366 I308E): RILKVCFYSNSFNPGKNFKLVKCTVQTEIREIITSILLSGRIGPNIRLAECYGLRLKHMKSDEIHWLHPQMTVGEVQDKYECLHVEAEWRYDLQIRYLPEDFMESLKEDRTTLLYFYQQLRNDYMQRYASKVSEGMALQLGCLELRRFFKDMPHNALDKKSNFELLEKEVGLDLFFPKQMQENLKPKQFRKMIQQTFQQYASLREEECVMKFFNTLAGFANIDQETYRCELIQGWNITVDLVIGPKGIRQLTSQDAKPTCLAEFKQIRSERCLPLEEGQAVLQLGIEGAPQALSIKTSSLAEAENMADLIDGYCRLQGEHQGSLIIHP
T8 sequence (Q14289 whole entry D346A): as the sequence (Q14289 whole entry Y135C) above, with C135Y, D346A counted along it

binding result (Pyk2 FERM (FAKF3)): no binding
binding result [1]: no binding
binding result [2]: no binding
binding result (Pyk2 FERM I308E variant): no binding
binding result (FLAG tagged Pyk2 Y135C): binds
binding result (FLAG tagged Pyk2 R306E): no binding
binding result (FLAG tagged Pyk2 W104A): binds
binding result (FLAG tagged Pyk2 D346A): binds
binding result (FLAG tagged Pyk2 I308E): no binding
B1: mouse monoclonal antibody 12A10 (antibody, V domains shown)
VH: EVKLQESGPELKKPGETVKISCKASGYTFTDYSMHWVMQSPGKGLKWMGWINTETGEPRYVDDFKGRFAFSLETSASTAYLQIINLKNEDTATYFCARWDHGHGGFTYWGQGTLVTVSA
VL: DIVLTQTTASLAVSLGQRATMSCRATESVDSYGKSFMYWFQQRAGQPPKLLIYLASNLESVVPPRFSGSGSRTDFSLTIDPVEADDAATYYCQQNNEDPFTFGSGTKLEIK
notes: Mouse IgG1 from hybridoma 12A10, raised against the His-tagged Pyk2 F3 module (D261-A366); Used as hybridoma supernatant in the ELISA screen and as an antibody in the Western blots; also called mAb 12A10; anti-Pyk2 12A10 monoclonal antibody

Source: patent US20110136232A1 (MAYO FOUNDATION FOR MEDICAL EDUCATION AND RESEARCH, published 2011)
